B1: Hairpin Ribozyme (parent)
chain: GUCCUCUUUCACGUGCGCGUGAAAGAGAGAAGUGAACCAGAGAAACACACGUUGUGGUAUAUUACCUGGUA

The variants in this series derive from B1. Description: self-cleavage, relative activity (ratio to wild type); higher = more cleavage; co-transcriptional.
For GUCCUCUUUCACGUGCGCGUGAAAGAGAGAAGUGAACCCGAGAAACACACGUUGUGGUAUAUUACCUAGUA [A39C G68A], the self-cleavage turned out to be 0.215.

As to GUCCUCUUUCACGUGCGCGUGAAAGAGAGAAGUGAACCCGAGACACACACGUUGUGGUAUAUUACCUGGUA [A39C A44C], the self-cleavage was 0.17. GUCCUCUUUCACGUGCGCGUGAAAGAGAGAAGUGAACCCAAGAAACACACGUUGUGGUAUAUUACCUGGUA [A39C G40A]: the self-cleavage is 0.112. Then GUCCUCUUUCACGUGCGCGUGAAAGAGAGAAGUGAACCCUAGAAACACACGUUGUGGUAUAUUACCUGGUA [A39C G40U], with 0.0957.

As to GUCCUCUUUCACGUGCGCGUGAAAGAGAGAAGUGAACUAGAGAAACACACGGUGUGGUAUAUUACCUGGUA [C38U U52G], the self-cleavage turned out to be 0.261. Regarding GUCCUCUUUCACGUGCGCGUGAAAGAGAGAAGUGAACUAGAGAAACACACGAUGUGGUAUAUUACCUGGUA [C38U U52A], the self-cleavage was determined as 0.509.

Take GUCCUCUUUCACGUGCGCGUGAAAGAGAGAAGUGAACUAGAGAAACACACGUUGUGGUAUAGUACCUGGUA [C38U U62G]: the self-cleavage was determined as 0.124. Then GUCCUCUUUCACGUGCGCGUGAAAGAGAGAAGUGAACUAGAGAAACACACGUUGAGGUAUAUUACCUGGUA [C38U U55A], with 0.168; and GUCCUCUUUCACGUGCGCGUGAAAGAGAGAAGUGAACCCGAGAAACACACGUUGUGGGAUAUUACCUGGUA [A39C U58G], with 0.315.

As for GUCCUCUUUCACGUGCGCGUGAAAGAGAGAAGUGAACCCGAGAAACACACGUUGUGGAAUAUUACCUGGUA [A39C U58A], the self-cleavage was determined as 0.231. Then GUCCUCUUUCACGUGCGCGUGAAAGAGAGAAGUGAACCCGAGAAACACACGGUGUGGUAUAUUACCUGGUA [A39C U52G], with 0.267; and GUCCUCUUUCACGUGCGCGUGAAAGAGAGAAGUGAACCGGAGAAACACACGUUGUGGUAUAUUACCUGGUG [A39G A71G], with 0.222. Then GUCCUCUUUCACGUGCGCGUGAAAGAGAGAAGUGAACCCGAGAAACACACGUUGUGGUAUAUUUCCUGGUA [A39C A64U], with 0.16. In the case of GUCCUCUUUCACGUGCGCGUGAAAGAGAGAAGUGAACCCGAGAAACACACGUUGUGGUAUAUUGCCUGGUA [A39C A64G], the self-cleavage stood at 0.0974. In the case of GUCCUCUUUCACGUGCGCGUGAAAGAGAGAAGUGAACCCGAGAAACACACGUGGUGGUAUAUUACCUGGUA [A39C U53G], the self-cleavage was determined as 0.207.

Turning to GUCCUCUUUCACGUGCGCGUGAAAGAGAGAAGUGAACUAGAGAAACACACGUUGUGGUAUAUUCCCUGGUA [C38U A64C], the self-cleavage came out at 0.233. As to GUCCUCUUUCACGUGCGCGUGAAAGAGAGAAGUGAACUAGAGAAACACACGUUGUGGUAUAUUGCCUGGUA [C38U A64G], the self-cleavage stood at 0.306. GUCCUCUUUCACGUGCGCGUGAAAGAGAGAAGUGAACCCGAGAAACACACGUUGGGGUAUAUUACCUGGUA [A39C U55G]: the self-cleavage was 0.205. Take GUCCUCUUUCACGUGCGCGUGAAAGAGAGAAGUGAACUAAAGAAACACACGUUGUGGUAUAUUACCUGGUA [C38U G40A]: the self-cleavage was found to be 0.203. On to GUCCUCUUUCACGUGCGCGUGAAAGAGAGAAGUGAACCCGAGAAACACAGGUUGUGGUAUAUUACCUGGUA [A39C C50G], for which the self-cleavage came to 0.0993. Regarding GUCCUCUUUCACGUGCGCGUGAAAGAGAGAAGUGAACCCGAGAAACACAAGUUGUGGUAUAUUACCUGGUA [A39C C50A], the self-cleavage stood at 0.165. Consider GUCCUCUUUCACGUGCGCGUGAAAGAGAGAAGUGAACUAGAGAAACACACGUUGUGGUAUAUUACCUGGAA [C38U U70A], for which the self-cleavage turned out to be 0.522. As for GUCCUCUUUCACGUGCGCGUGAAAGAGAGAAGUGAACUAGAGAAACACACGUUGUGGUAUAUUACCUUGUA [C38U G68U], the self-cleavage was 0.605.

Regarding GUCCUCUUUCACGUGCGCGUGAAAGAGAGAAGUGAACUAGAGAAACACACGUUGUGGUAUAUUACCUAGUA [C38U G68A], the self-cleavage was found to be 0.931. Then GUCCUCUUUCACGUGCGCGUGAAAGAGAGAAGUGAACCGGAGAAACACACGUUGUGGUAUAUUCCCUGGUA [A39G A64C], with 0.174. With GUCCUCUUUCACGUGCGCGUGAAAGAGAGAAGUGAACCGGAGAAACACACGUUGUGGUAUAUUUCCUGGUA [A39G A64U], the self-cleavage came to 0.123. For GUCCUCUUUCACGUGCGCGUGAAAGAGAGAAGUGAACCGGAGAGACACACGUUGUGGUAUAUUACCUGGUA [A39G A44G], the self-cleavage was determined as 0.129. Then GUCCUCUUUCACGUGCGCGUGAAAGAGAGAAGUGAACCGGAGAAACACCCGUUGUGGUAUAUUACCUGGUA [A39G A49C], with 0.176.

GUCCUCUUUCACGUGCGCGUGAAAGAGAGAAGUGAACCGGAGAAAAACACGUUGUGGUAUAUUACCUGGUA [A39G C46A]: the self-cleavage came to 0.0818. Then GUCCUCUUUCACGUGCGCGUGAAAGAGAGAAGUGAACCCGAGAAAAACACGUUGUGGUAUAUUACCUGGUA [A39C C46A], with 0.191; and GUCCUCUUUCACGUGCGCGUGAAAGAGAGAAGUGAACCCGAGAAAGACACGUUGUGGUAUAUUACCUGGUA [A39C C46G], with 0.13; and GUCCUCUUUCACGUGCGCGUGAAAGAGAGAAGUGAACCCGAGAAAUACACGUUGUGGUAUAUUACCUGGUA [A39C C46U], with 0.103. Regarding GUCCUCUUUCACGUGCGCGUGAAAGAGAGAAGUGAACUAGAGAAACACACAUUGUGGUAUAUUACCUGGUA [C38U G51A], the self-cleavage is 0.786.

With GUCCUCUUUCACGUGCGCGUGAAAGAGAGAAGUGAACUAGAGAAACACACUUUGUGGUAUAUUACCUGGUA [C38U G51U], the self-cleavage came out at 0.774.

In the case of GUCCUCUUUCACGUGCGCGUGAAAGAGAGAAGUGAACCCGAGAAACACGCGUUGUGGUAUAUUACCUGGUA [A39C A49G], the self-cleavage is 0.208. For the variant GUCCUCUUUCACGUGCGCGUGAAAGAGAGAAGUGAACUAGAGAAACACACGUUGUGGUAUAUUACCCGGUA [C38U U67C], the self-cleavage came to 0.121.

With GUCCUCUUUCACGUGCGCGUGAAAGAGAGAAGUGAACCGGAGAAACACACGUUGUGGUAUAUUACCUGGUA [A39G], the self-cleavage is 0.299. For the variant GUCCUCUUUCACGUGCGCGUGAAAGAGAGAAGUGAACCCGAGAAACACACGUUGUGGUAUAUUACCUGGUA [A39C], the self-cleavage stood at 0.539.
